Test results: the supplement of paper PMC9170038

Tested on: MS2 coat protein
Experiment: apparent KD of MS2 coat protein; designed switch direction (-1 OFF switch, 1 ON switch): -1; higher = weaker reporter binding
Procedure, shortened: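 Each step of the titration lasted 0.8–1.5 h at the lowest concentration and 10–20 min at the highest. The protein, SNAP-549-labelled MS2 coat protein, went from 0.7 or 1.5 nM doubling to 3 µM over RNA switches transcribed on Illumina chips by stalled E. coli RNA polymerase. Normalised cluster fluorescence was curve-fitted, and the per-design median over clusters is given as apparent KD.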

[1] = input ligand: microRNA oligo, concentration not stated
[2] = Eterna round: R95, input ligand: microRNA oligo, concentration not stated
[3] = Eterna round: R95, input ligand: FMN 200 uM
[4] = Eterna round: R95, input ligand: none

## GCACGACAUCAGGAUAUGACUAGCUGCGGCUAGUCAGAAGGGAUGACAUGAGGAUCACCCAUGUGAUCACGUGC [E6/2-B3] (Eterna round: R97, puzzle: Exclusion 6)
Input ligand: FMN 200 uM
  apparent KD of MS2 coat protein: 114 nM
Input ligand: none
  apparent KD of MS2 coat protein: 85.3 nM

## GCACGGAGUGUAGGAUAUCUGUGCGAUUAGCUCAGAGAAGGACACAUGAGGAUCACCCAUGUGUUCCACGGAAACGAACCGUGC [Eli exng1 - 052] (Eterna round: R96, puzzle: Exclusion NG 1)
Input ligand: FMN 200 uM
  apparent KD of MS2 coat protein: 11.8 nM
[1]
  apparent KD of MS2 coat protein: 10.2 nM
Input ligand: none
  apparent KD of MS2 coat protein: 13.4 nM

## GCACGGAUGGUAGGAUAUCUGUGCGAUUAGCUCAGAGAAGGACCACAUGAGGAUCACCCAUGUACCUCAAUUAGCUUUCCGUGC [Eli exng1 - 020] (Eterna round: R96, puzzle: Exclusion NG 1)
Input ligand: FMN 200 uM
  apparent KD of MS2 coat protein: 40.7 nM
[1]
  apparent KD of MS2 coat protein: 11 nM
Input ligand: none
  apparent KD of MS2 coat protein: 15.2 nM

## GCACGGUUGGUAGGAUAUCCUUGCGAUUAGCAAGGAGAAGGACCACAUGAGGAUCACCCAUGUACCUCAAUAAUCCUUCCGUGC [Eli exng1 - 027] (Eterna round: R96, puzzle: Exclusion NG 1)
Input ligand: FMN 200 uM
  apparent KD of MS2 coat protein: 12.8 nM
[1]
  apparent KD of MS2 coat protein: 12.1 nM
Input ligand: none
  apparent KD of MS2 coat protein: 14.7 nM

## GCACUGACAGGAUAUACAUGAGGAUCACCCAUGUGACCCUUAAAGUACUCGCGUACAAGUAGAAGGGUCUGUGC [Omei Ex3 Model Bachelor's Dilema v30] (Eterna round: R97, puzzle: Exclusion 3)
Input ligand: FMN 200 uM
  apparent KD of MS2 coat protein: 398 nM
Input ligand: none
  apparent KD of MS2 coat protein: 66.7 nM

## GCAGCAACUCUAAUCAAUCAAACAUGAGGAUCACCCAUGUCUCAGGAUAUGGUCUGGAUUACAGGCCAGAAGGGAGAAAGCUGC [Eli exng3 - 045] (Eterna round: R96, puzzle: Exclusion NG 3)
Input ligand: FMN 200 uM
  apparent KD of MS2 coat protein: 14.3 nM
[1]
  apparent KD of MS2 coat protein: 11.1 nM
Input ligand: none
  apparent KD of MS2 coat protein: 16.1 nM

## GCAGCAUAGAUAACAGUCUGAUACAUGAGGAUCACCCAUGUACAGGAUAUGGUCUGGAUUACAGGCCAGAAGGGUACAAGCUGC [Eli exng3 - 014] (Eterna round: R96, puzzle: Exclusion NG 3)
Input ligand: FMN 200 uM
  apparent KD of MS2 coat protein: 10.9 nM
[1]
  apparent KD of MS2 coat protein: 9.69 nM
Input ligand: none
  apparent KD of MS2 coat protein: 12.7 nM

## GCAGCUAACACAGAUAUGUGGACAUGAGGAUCACCCAUGUCACAGGAUAUGGACUGGAUUACAGUCCAGAAGGGUGAAUGCUGC [Zipper Style 5] (Eterna round: R96, puzzle: Exclusion NG 3)
Input ligand: FMN 200 uM
  apparent KD of MS2 coat protein: 8.25 nM
[1]
  apparent KD of MS2 coat protein: 10.8 nM
Input ligand: none
  apparent KD of MS2 coat protein: 14.2 nM

## GCAGGAUAAGUCAGGAUAUACCUAUGGAUACAUAGGUAGAAGGGACAUGAGGAUCACCCAUGUGCCUCGCCUGC [Fiskers BMX 4 - 72] (puzzle: Brourd's mod of Exclusion 4)
[2]
  apparent KD of MS2 coat protein: 12.4 nM

## GCAGGAUAAGUUAGGAUAUACCUAUGGAUACAUAGGUAGAAGGGACAUGAGGAUCACCCAUGUGACUCACCUGC [Fiskers BMX 4 - 63] (puzzle: Brourd's mod of Exclusion 4)
[3]
  apparent KD of MS2 coat protein: 33.5 nM
[2]
  apparent KD of MS2 coat protein: 18.4 nM
[4]
  apparent KD of MS2 coat protein: 22.4 nM

## GCAUCCAGUGUGAGGAUAUACCUCUGGAUACAUAGGUAGAAGGCACAUGAGGAUCACCCAUGUCCUAAGGAUGC [Fiskers BMX 4 - 29] (puzzle: Brourd's mod of Exclusion 4)
[3]
  apparent KD of MS2 coat protein: 104 nM
[2]
  apparent KD of MS2 coat protein: 47.5 nM
[4]
  apparent KD of MS2 coat protein: 75.5 nM

## GCAUGCGACUGAGGAUAUGUAGUGACCUCAGUCGAGACAUGAGGAUCACCCAUGUACAGCACGUGACAGAAGGCAGCACAUGAU [Eternabot solution 14] (Eterna round: R96, puzzle: Exclusion NG 2)
Input ligand: FMN 200 uM
  apparent KD of MS2 coat protein: 63.2 nM
[1]
  apparent KD of MS2 coat protein: 38.5 nM
Input ligand: none
  apparent KD of MS2 coat protein: 53.7 nM

## GCAUGGCGAGGAUAUACAUGAGGAUCACCCAUGUGAGAAUAAUAAGUGAGGAAGAAAAGUAGAAGGCGCUGUGG [Mat - Exclusion 3 - Mod of Salish D64] (puzzle: Exclusion 3)
[3]
  apparent KD of MS2 coat protein: 250 nM
[2]
  apparent KD of MS2 coat protein: 70.1 nM
[4]
  apparent KD of MS2 coat protein: 97.8 nM

## GCAUGGGCCGUCAGGAUAUAGGCGCCGUGAAGGUAUUAGAAGGGACAUGAGGAUCACCCAUGUAUGAGAAAAGA [Edtioresor] (puzzle: Brourd's mod of Exclusion 4)
[2]
  apparent KD of MS2 coat protein: 33.7 nM

## GCAUGUUGGUAGGAUAUGCAGCGGAAACCGCUAGUAGAAGGAUUGACAUGAGGAUCACCCAUGUGAACCGAAGG [Arcelace] (Eterna round: R97, puzzle: Exclusion 6)
Input ligand: FMN 200 uM
  apparent KD of MS2 coat protein: 186 nM
Input ligand: none
  apparent KD of MS2 coat protein: 40.4 nM

## GCCAGAGCAGGAUAUUCAAUAAUUCACAUGAGGAUCACCCAUGUCGAGCGAAAGCUCGAGGGAGAAGGGCUCUGGC [Fiskers Ex 5 - 6] (puzzle: Exclusion 5)
[3]
  apparent KD of MS2 coat protein: 14.3 nM
[2]
  apparent KD of MS2 coat protein: 34.8 nM
[4]
  apparent KD of MS2 coat protein: 39.4 nM

## GCCGAAAAAGUGAGGAUAUACCUAUGGAUACAUAGGUAGAAGGCACAUGAGGAUCACCCAUGUGUCCUAACGGC [Eli bmx4 4.29] (Eterna round: R97, puzzle: Brourd's mod of Exclusion 4)
Input ligand: FMN 200 uM
  apparent KD of MS2 coat protein: 18 nM
Input ligand: none
  apparent KD of MS2 coat protein: 15.2 nM

## GCCGAAAGCGUAGGAUAUUGAAUAAAGCGGAAACGCAAGACAUGAGGAUCACCCAUGUGUCCGGACGAGAAGGGCGAAAGCGGC [AK ExNG2-V2-2] (Eterna round: R96, puzzle: Exclusion NG 2)
Input ligand: FMN 200 uM
  apparent KD of MS2 coat protein: 33.6 nM
[1]
  apparent KD of MS2 coat protein: 24.1 nM
Input ligand: none
  apparent KD of MS2 coat protein: 35.3 nM

## GCCGGAUAAGUGAGGAUAUACCUAUGGAUACAUAGGUAGAAGGCACAUGAGGAUCACCCAUGUUCCUCUCCGGC [JL-BMX4-4.17 Eli mod] (Eterna round: R97, puzzle: Brourd's mod of Exclusion 4)
Input ligand: FMN 200 uM
  apparent KD of MS2 coat protein: 406 nM
Input ligand: none
  apparent KD of MS2 coat protein: 30.3 nM

## GCCUCACUUGAGGAUCACCCAAGUCAGGAUAUCUACAGGCCGGCCAUACCAGCCUGCAAGAGAAGGGACUCUAA [Isriqu] (Eterna round: R97, puzzle: Exclusion 1)
Input ligand: FMN 200 uM
  apparent KD of MS2 coat protein: 245 nM
Input ligand: none
  apparent KD of MS2 coat protein: 32.3 nM

## GCCUGUGAAGGAUAUACAUGAGGAUCACCCAUGUGGCGGAUAUACCCGCCGAGACCGUGUAGAAGGUCAUAGUA [Xezauser] (puzzle: Exclusion 3)
[2]
  apparent KD of MS2 coat protein: 36.1 nM

## GCCUUAUGAGUCAGGAUAUACAAUAAAAUAAUUAAGUAGAAGGGACAUGAGGAUCACCCAUGUACAUUACAUUG [alecazam28] (Eterna round: R97, puzzle: Brourd's mod of Exclusion 4)
Input ligand: FMN 200 uM
  apparent KD of MS2 coat protein: 82.4 nM
Input ligand: none
  apparent KD of MS2 coat protein: 21.6 nM
